Measurements as given in patent US20190241648A1 (STATEN BIOTECHNOLOGY B V, published 2019).
Ends that are not written are not given here.

What was measured:
Assay in all cases: peptide microarray
[1] = biological target: T1, ApoC3 peptide … V43Y (human, not fully specified (bridges); also: cyclic constrained)
T1 peptide: ARGWYTDGFSSLK
Procedure, shortened: (§1)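 Peptide microarrays of ApoC3-derived peptides incubated with antibody samples, then stained with goat anti-human IgG (Fc) DyLight680 (1:5000) and anti-HA DyLight800 (1:2000) control. Read-out by fluorescence scanning at intensities 7/7 (red/green); a secondary-only pre-stain checked background, HA frame peptides served as quality control.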

[2] = biological target: T2, ApoC3 peptide … A39M (human, cyclic constrained)
T2 peptide: MRGWVTDGFSSLK
Procedure, shortened: as §1

[3] = biological target: T3, ApoC3 peptide … T44R (human, not fully specified (bridges); also: cyclic constrained)
T3 peptide: ARGWVRDGFSSLK
Procedure, shortened: as §1

[4] = biological target: T4, ApoC3 peptide … A39I (human, cyclic constrained)
T4 peptide: IRGWVTDGFSSLK
Procedure, shortened: as §1

[5] = biological target: T5, ApoC3 peptide … R40T (human, not fully specified (bridges); also: cyclic constrained)
T5 peptide: ATGWVTDGFSSLK
Procedure, shortened: as §1

[6] = biological target: T6, ApoC3 peptide … R40L (human, not fully specified (bridges); also: cyclic constrained)
T6 peptide: ALGWVTDGFSSLK
Procedure, shortened: as §1

[7] = biological target: T7, ApoC3 peptide … G46N (human, not fully specified (bridges); also: cyclic constrained)
T7 peptide: ARGWVTDNFSSLK
Procedure, shortened: as §1

[8] = biological target: T8, ApoC3 peptide … F47P (human, not fully specified (bridges); also: cyclic constrained)
T8 peptide: ARGWVTDGPSSLK
Procedure, shortened: as §1

[9] = biological target: T9, ApoC3 peptide … T44D (human, not fully specified (bridges); also: cyclic constrained)
T9 peptide: ARGWVDDGFSSLK
Procedure, shortened: as §1

[10] = biological target: T10, ApoC3 peptide … K51N (human, not fully specified; cyclic constrained)
T10 peptide: ARGWVTDGFSSLN
Procedure, shortened: as §1

[11] = biological target: T11, ApoC3 peptide … L50N (human, not fully specified; cyclic constrained)
T11 peptide: ARGWVTDGFSSNK
Procedure, shortened: as §1

[12] = biological target: T12, ApoC3 peptide … F47Q (human, not fully specified (bridges); also: cyclic constrained)
T12 peptide: ARGWVTDGQSSLK
Procedure, shortened: as §1

[13] = biological target: T13, ApoC3 peptide … K51V (human, not fully specified; cyclic constrained)
T13 peptide: ARGWVTDGFSSLV
Procedure, shortened: as §1

[14] = biological target: ApoC3 peptide … S48P (human, cyclic constrained)
Procedure, shortened: as §1

[15] = biological target: T14, ApoC3 peptide … V43I (human, not fully specified; cyclic constrained)
T14 peptide: ARGWITDGFSSLK
Procedure, shortened: as §1

[16] = biological target: T15, ApoC3 peptide … A39E (human, cyclic constrained)
T15 peptide: ERGWVTDGFSSLK
Procedure, shortened: as §1

[17] = biological target: T16, ApoC3 peptide … F47N (human, not fully specified (bridges); also: cyclic constrained)
T16 peptide: ARGWVTDGNSSLK
Procedure, shortened: as §1

[18] = biological target: T17, ApoC3 peptide … G41R (human, also: cyclic constrained)
T17 peptide: ARRWVTDGFSSLK
Procedure, shortened: as §1

[19] = biological target: T18, ApoC3 peptide … G46H (human, not fully specified (bridges); also: cyclic constrained)
T18 peptide: ARGWVTDHFSSLK
Procedure, shortened: as §1

[20] = biological target: T19, ApoC3 peptide … T44E (human, not fully specified (bridges); also: cyclic constrained)
T19 peptide: ARGWVEDGFSSLK
Procedure, shortened: as §1

[21] = biological target: T20, ApoC3 peptide … D45N (human, cyclic constrained)
T20 peptide: ARGWVTNGFSSLK
Procedure, shortened: as §1

[22] = biological target: T21, ApoC3 peptide … D45G (human, not fully specified (bridges); also: cyclic constrained)
T21 peptide: ARGWVTGGFSSLK
Procedure, shortened: as §1

[23] = biological target: T22, ApoC3 peptide … L50S (human, not fully specified (bridges); also: cyclic constrained)
T22 peptide: ARGWVTDGFSSSK
Procedure, shortened: as §1

[24] = biological target: T23, ApoC3 peptide … L50A (human, not fully specified; cyclic constrained)
T23 peptide: ARGWVTDGFSSAK
Procedure, shortened: as §1

[25] = biological target: T24, ApoC3 peptide … R40E (human, not fully specified (bridges); also: cyclic constrained)
T24 peptide: AEGWVTDGFSSLK
Procedure, shortened: as §1

[26] = biological target: T25, ApoC3 peptide … L50Y (human, not fully specified (bridges); also: cyclic constrained)
T25 peptide: ARGWVTDGFSSYK
Procedure, shortened: as §1

[27] = biological target: T26, ApoC3 peptide … G41A (human, also: cyclic constrained)
T26 peptide: ARAWVTDGFSSLK
Procedure, shortened: as §1

[28] = biological target: T27, ApoC3 peptide … G41H (human, also: cyclic constrained)
T27 peptide: ARHWVTDGFSSLK
Procedure, shortened: as §1

[29] = biological target: T28, ApoC3 peptide … T44M (human, not fully specified (bridges); also: cyclic constrained)
T28 peptide: ARGWVMDGFSSLK
Procedure, shortened: as §1

[30] = biological target: T29, ApoC3 peptide … D45L (human, cyclic constrained)
T29 peptide: ARGWVTLGFSSLK
Procedure, shortened: as §1

[31] = biological target: T30, ApoC3 peptide … V43D (human, not fully specified; cyclic constrained)
T30 peptide: ARGWDTDGFSSLK
Procedure, shortened: as §1

% of binding to wild-type peptide [1]: 230%
% of binding to wild-type peptide [2]: 90.7%
% of binding to wild-type peptide [3]: 0%
% of binding to wild-type peptide [4]: 52.3%
% of binding to wild-type peptide [5]: 38.7%
% of binding to wild-type peptide [6]: 54.2%
% of binding to wild-type peptide [7]: 10.4%
% of binding to wild-type peptide [8]: 0%
% of binding to wild-type peptide [9]: 0%
% of binding to wild-type peptide [10]: 2.6%
% of binding to wild-type peptide [11]: 0%
% of binding to wild-type peptide [12]: 0%
% of binding to wild-type peptide [13]: 3.85%
% of binding to wild-type peptide [14]: 0.06%
% of binding to wild-type peptide [15]: 41%
% of binding to wild-type peptide [16]: 98.9%
% of binding to wild-type peptide [17]: 0.06%
% of binding to wild-type peptide [18]: 19.4%
% of binding to wild-type peptide [19]: 1.81%
% of binding to wild-type peptide [20]: 0%
% of binding to wild-type peptide [21]: 4.85%
% of binding to wild-type peptide [22]: 2.16%
% of binding to wild-type peptide [23]: 0%
% of binding to wild-type peptide [24]: 0%
% of binding to wild-type peptide [25]: 76.9%
% of binding to wild-type peptide [26]: 0.38%
% of binding to wild-type peptide [27]: 7.01%
% of binding to wild-type peptide [28]: 23.1%
% of binding to wild-type peptide [29]: 0%
% of binding to wild-type peptide [30]: 17.1%
% of binding to wild-type peptide [31]: 0%
B1: anti-ApoC3 antibody 14C7 (antibody, V domains shown)
VH: QVQVQESGPGLVKPSQTLSLTCTVSGGSITTNSYYWSWIRQPPGKGLEWMGAIDYSGDTYYSPSLKSRTSISRDTSKNQFTLQLTSVTPEDTAVYYCVSRIPTGEYWGQGTQVTVSS
VL: QTVVTQEPSLSVSPGGTVTLTCGLNSGSVTSSNYPDWYQQTPGQAPRLLIYNTNSRHSGVPSRFSGSISGNKAALTITGAQPEDEADYYCALYMGSDSVVFGGGTHLTVL
notes: it was detected with goat anti-human IgG (Fc); also called mAb 14C7; llama antibody 14C7
